B1: recombinant protein composed of the two N-terminal RNA Recognition Motifs (RRM) of Half pint (Hfp) (domain or fragment, Drosophila, UniProt Q8T6B9 110-326, looked up)
chain: QQQLATQRTQVQRQQALALMCRVYVGSISFELKEDTIRVAFTPFGPIKSINMSWDPITQKHKGFAFVEYEIPEGAQLALEQMNGALMGGRNIKVGRPSNMPQAQQVIDEVQEEAKSFNRIYVASIHPDLSEEDIKSVFEAFGPILYCKLAQGTSLHTHKGYGFIEYANKQAMDEAIASMNLFDLGGQLLRVGRSITPPNALACPTTNSTMPTAAAVA

Assays:
[1] = biological target: the molecule itself; experiment: SDS-PAGE and Western blot
[2] = biological target: T1, Hfp N-terminal RRMs (half pint, PUF60 homolog) (UniProt Q8T6B9 110-326); experiment: EMSA
T1 sequence: B1 chain

Binder | stoichiometry N [1] | binding result [2]
B1 | 2 | 
UCUUCCCCUC (ssRNA) [act57B PT] |  | binds
UUUUUCUCUU (ssRNA) [Positive control (Drosophila consensus polypyrimidine-rich sequence)] |  | binds
UACGUACGUA (ssRNA) [Negative control scramble] |  | no binding

— paper doi:10.1101/2020.06.30.179986 (bioRxiv, 2020)
